In doi:10.1101/2024.04.22.590578 one finds stoichiometry N data, which are given here for 1 substance.

The target in the assay is SARS-CoV-2 main protease (M^pro), wild type (SARS-CoV-2). Nature of the assay: crystal structure.

The term stoichiometry N denotes the number of molecules, sites or subunits per partner or assembly. “SARS-CoV-2 main protease (M^pro), wild type (enzyme)” registered a stoichiometry N of 2.
